Laboratory results taken from paper PMC6213480, “A Novel Cold-Adapted Leucine Dehydrogenase from Antarctic Sea-Ice Bacterium Pseudoalteromonas sp. ANT178” (Marine Drugs, 2018).

How the values were obtained:
Assay in all cases: purified protein
Type in all cases: biochemical, Pseudoalteromonas sp. ANT178
Settings in all cases: oxidative deamination with NAD+, standard assay 0.1 M glycine-NaOH pH 10.4, 1 mM NAD+, 30 °C
CSCCC(N)C(=O)O = tested on: CSCCC(N)C(=O)O
[1] = tested on: N[C@@H](Cc1ccc(O)cc1)C(=O)O
N=C(N)NCCC[C@H](N)C(=O)O = tested on: N=C(N)NCCC[C@H](N)C(=O)O
CC(C)C[C@H](N)C(=O)O = tested on: CC(C)C[C@H](N)C(=O)O

## rPsLeuDH (Pseudoalteromonas sp.)
CSCCC(N)C(=O)O
  Km: 750 µM
  Vmax: 8.38 µmol/min/mg
  kcat: 16.6 s⁻¹
  kcat/Km: 22100 M⁻¹ s⁻¹
[1]
  Km: 480 µM
  Vmax: 13.3 µmol/min/mg
  kcat: 26.4 s⁻¹
  kcat/Km: 55000 M⁻¹ s⁻¹
N=C(N)NCCC[C@H](N)C(=O)O
  Km: 840 µM
  Vmax: 7.13 µmol/min/mg
  kcat: 14.1 s⁻¹
  kcat/Km: 16800 M⁻¹ s⁻¹
CC(C)C[C@H](N)C(=O)O
  Km: 330 µM
  Vmax: 15.2 µmol/min/mg
  kcat: 30.1 s⁻¹
  kcat/Km: 91300 M⁻¹ s⁻¹
